The supplement of paper PMC9170038

What was measured:
MS2 coat protein [1] = assay: apparent KD of MS2 coat protein, switch OFF state (with FMN for OFF switches, without FMN for ON switches); designed switch direction (-1 OFF switch, 1 ON switch): 1; higher = weaker reporter binding; conditions: FMN input: 0 or 200 uM; Eterna round: R93 (includes R88 designs)
Method in brief: (§1)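 The buffer was 100 mM Tris-HCl pH 7.5 with 80 mM KCl and 4 mM MgCl2, used without or with constant ligand. In it, RNA switches transcribed on-chip from Illumina sequencing clusters were titrated with SNAP-549-labelled MS2 coat protein in twofold steps from 0.7 or 1.5 nM to 3 µM. Apparent KD for each design is the median of its normalised cluster binding-curve fits.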

MS2 coat protein [2] = assay: apparent KD of MS2 coat protein, switch ON state; designed switch direction (-1 OFF switch, 1 ON switch): 1; higher = weaker reporter binding; conditions: FMN input: 0 or 200 uM; Eterna round: R93 (includes R88 designs)
Method in brief: as §1

| Sequence | apparent KD of MS2 coat protein (MS2 coat protein [1]) | apparent KD of MS2 coat protein (MS2 coat protein [2]) |
| --- | --- | --- |
| GAAAAACAUGAGGAUCACCCAUGUGUAAACACGGGAGGAUAUACGAAGACGUAAGUCAAAGUAGAAGGCCUAAAAG [Garnet 40] | 60.3 nM | 18.9 nM |
| AAAUAACAUGAGGAUCACCCAUGUCAAAUAAAUCGAGGAUAUGGGCCCGGGUUCCGGAAGCCAGAAGGCGAAAAGA [Diareslera] | 55.1 nM | 24.9 nM |
| AAGAAAGAAACAUAGGAUAUCAAGGAUAUAACAUGAGGAUCACCCAUGUAAAUACGAAAGUAUAAUGAGAAGGAUGGAUGAUCUUC [Meechl MS2 SS2] | 44.9 nM | 28.9 nM |
| AAAAAACAUGAGGAUCACCCAUGUAAAAAAAACACAGGAUAUCCAAAAAAAAAAAAAAAAGGAGAAGGGUGAAAAA [Nob - Jieux - Same State 1] | 48.3 nM | 22 nM |
| AAAAAACAUGAGGAUCACCCAUGUCCUCGGACGUGAGGAUAUGUACAGACUUCGGUCUGUACAGAAGGCACGUAAA [SS1 - 1042] | 402 nM | 492 nM |
| UGGAGACAUGAGGAUCACCCAUGUGAGAAGAGGCGAGGAUAUCGAAAGAAAGAAGAGAAACGAGAAGGCGCGAGAA [salish99-SS1-033] | 36.7 nM | 13 nM |
| AUAGAACAUGAGGAUCACCCAUGUAAAAAAGCAUGAGGAUAUAUAAGUAAAUAAAAUAAGAUAGAAGGCAUGAUAA [JR_SS001_Sub1701] | 91.4 nM | 52 nM |
| GUAGACAUAGUUCAGGAUAUAGGAAUAGUCACAUGAGGAUCACCCAUGUGCAUUUAUAUGCGCACUUAGAAGGGAGGUAGUUAAC [Mat - Same state - Malcolm Mod - D121] | 25 nM | 26.3 nM |
| AGGAAACAUGAGGAUCACCCAUGUAUAAAAAAUACAGGAUAUGGAAACACGAAAGUGAAACCAGAAGGGUAAAAAA [77%, Mat - Mod of Eli, 32] | 39.9 nM | 15.9 nM |
| AUAUGAUCAUGUGAGGAUAUCCAUAAUAAAACAUGAGGAUCACCCAUGUAUAGAUACUAAUAAUGGGAGAAGGCACAUGAUCAAU [SS 2 M43] | 24 nM | 19.9 nM |
| AAAUAACAUGAGGAUCACCCAUGUCAAAUAAAUCGAGGAUAUGGGCCCGAGUUCCGGGAGCCAGAAGGCGAAAAGA [Ceusrete] | 51.7 nM | 28.9 nM |
| AAUAUAUUAAGUGAGGAUAUCGAGGAAAAAACAUGAGGAUCACCCAUGUGGGAAACAUGGUAGGGUGAGAAGGCACUUAAUAUAU [Samwise Clockwise 24 - Jieux - Same State 2] | 572 nM | 132 nM |
| AUAAAAGAAGCGAAGGAUAUCCAACUCAAAACAUGAGGAUCACCCAUGUAAAGAAAUAAAAAAUGGGAGAAGGUCGCAAAGAAUA [73%, More Fisker Same State 2, D3, 14] | 40.1 nM | 582 nM |
| AAAAAACAUGAGGAUCACCCAUGUGAGAACAAGGGAGGAUAUACGAAGACGAAAGUCGAAGUAGAAGGCCUAAAAA [Garnet 81] | 46.6 nM | 23.3 nM |
| AAAAAACAUGAGGAUCACCCAUGUAAUACAACAUCAGGAUAUUGGUUUUACUAUGUAUUACAAGAAGGGAUGAAAA [Same State 1.3b (Same State 1 - Omei 2 )] | 92.4 nM | 181 nM |
| GGCUGCGAUGUGAAGGAUAUCCGCGACUGGACAUGAGGAUCACCCAUGUAUGCUUGGAACAUGCCGGAGAAGGUCACGAAUGAUU [JR_SS002_Sub1216] | 30.2 nM | 18.7 nM |
| AAAGACACGGUGCAGGAUAUAGUAAUAGUCACAUGAGGAUCACCCAUGUUCUUUUAUAAGAACGAUUAGAAGGGCGGUGAAAAAA [SameState2 Malc#10] | 92.6 nM | 182 nM |
| UAAAAACAUGAGGAUCACCCAUGUGAGAACAUGGGAGGAUAUACAAAGACGAAAGUCGAAGUAGAAGGCCUAAAAU [Mat - Same State 1 - Mod - D173] | 25.7 nM | 178 nM |
| AGAAAACAUGAGGAUCACCCAUGUAGAAAUAUGGGAGGAUAUACAUAGACGAAAGUCAUAGUAGAAGGCCUAAAGA [Mat - Same State 1 - Meechl mod - D128] | 49.4 nM | 15 nM |

| Sequence | apparent KD of MS2 coat protein (MS2 coat protein [1]) | apparent KD of MS2 coat protein (MS2 coat protein [2]) |
| --- | --- | --- |
| AAUAAACAUGAGGAUCACCCAUGUAGAAACAUGGGAGGAUAUACAAAGACGAAAGUCAAAGUAGAAGGCCUAAAAA [Mat - Same State 1 - Mod - D168] | 329 nM | 150 nM |
| AAAUGACAUGAGGAUCACCCAUGUCCACCAAACGGAGGAUAUUGGGCGGCAAAACGUUGUUAAGAAGGCCGAAAAA [SS1-1.1] | 28 nM | 60 nM |
| AAAAUAAAAUAAAAGGAUAUAAAGAUAUAUACAUGAGGAUCACCCAUGUAUAUAUCAAUAAAAUAAAAGAAGGAAUAAAAAUAAA [SS2 510: MS2 10] | 18 nM | 14.8 nM |
| GAAAAACAUGAGGAUCACCCAUGUGGAAAUAUGGAAGGAUAUACAAAGACGGAAGUCAAAGUAGAAGGUCUAAAAG [Mat - Same State 1 - Eli mod - D19] | 29.4 nM | 23.6 nM |
| AAUAAACAUGAGGAUCACCCAUGUAGAAAUAUGGGAGGAUAUACAAAGACGAAAGUCAAAGUAGAAGGCCUAAUAU [Mat - Same State 1 - Mod - D154] | 64.7 nM | 23.2 nM |
| AAGAAUUAAACGCAGGAUAUGUACCCACGUACAUGAGGAUCACCCAUGUGCCUAUAAGGGUCGAGGCAGAAGGGCGAUAUAGAAA [Reteriusge] | 81.2 nM | 15.8 nM |
| AAGAAACAUGAGGAUCACCCAUGUGAUAAUAUGGGAGGAUAUACGAAGACGAAAGACGAAGUAGAAGGCCUAAGAA [Garnet 46] | 138 nM | 45.3 nM |
| AAAAAACAUGAGGAUCACCCAUGUCUUUUGACAUGAGGAUAUGUACAGACUUCGGUCUGUACAGAAGGCAUGUAAA [SS1 - 1028] | 397 nM | 31.1 nM |
| ACAAAUAAAAGAGAGGAUAUCCAAAAGAAAACAUGAGGAUCACCCAUGUGAAAGAAAAUAAAAUGGGAGAAGGCUCAGAAUAAUA [Topaz 30] | 83.2 nM | 16.4 nM |
| AUAAAACAUGAGGAUCACCCAUGUAGACAUAUGGGAGGAUAUACUAGAUCGAAAGAUCUAGUAGAAGGUCUUUAAA [JL Mod of Eli 9] | 257 nM | 297 nM |
| AAAGACAUAGUGCAGGAUAUGGUAAUAGUCACAUGAGGAUCACCCAUGUUCUUUUAUAAGAACGAUCAGAAGGGCGGUAAAAAAA [SameState2 Malc#13] | 666 nM | 359 nM |
| AAACCACAUGAGGAUCACCCAUGUAAGAUAUACAUAGGAUAUGCGAAAAGAAACAAAGAAGCAGAAGGGUGGAAAA [75%, Ex sub1, 15] | 54.9 nM | 100 nM |
| GAAAUAAAAACACAGGAUAUCCAAAAGAAAACAUGAGGAUCACCCAUGUAAAGAAAAUAAAAAUGGGAGAAGGGUGAAAAUAAAA [Mat - Same State 2 - JL mod - D26] | 41.3 nM | 15.8 nM |
| AAAAAAAAAGUAUAGGAUAUCCGAGUGGUAACAUGAGGAUCACCCAUGUGAAGAAAGGAAGAUGAGGAGAAGGAUACAAAAAAAAA [Mod of Mat of Nando] | 65.3 nM | 27.9 nM |
| AUAGACAUAGUUCAGGAUAUGGUAAUAGUCACAUGAGGAUCACCCAUGUGCAUUUAUAUGCGCGAUCAGAAGGGAGGUAGAUAUA [Mat - Same state - Malcolm Mod - D117] | 16.3 nM | 17.7 nM |
| AAUCCAAAUAGUUAGGAUAUGGGAAUAAAAACAUGAGGAUCACCCAUGUAAUUGAAACAAGUUAACCAGAAGGGACAGGGUGAAA [JR_SS002_Sub210] | 16.6 nM | 67.5 nM |
| AAAAAACAUGAGGAUCACCCAUGUAAAAAAAACACAGGAUAUCCCUAAAAAAAAAAAAAAGGAGAAGGGUGAAAAA [Nob's Hobby 2 - Jieux - Same State 1] | 29.8 nM | 21.3 nM |
| AACAAACAUGAGGAUCACCCAUGUCAAACAUACCAAGGAUAUGGGAGACGAGACUCGUCACCAGAAGGUGGAAAUU [Maatce] | 123 nM | 106 nM |
| AAAAAAUAAAAAAAGGAUAUAAAUCCUAGAACAUGAGGAUCACCCAUGUACUAGGAAAAAAUAAAAAAGAAGGAAAAAUAAAAAA [SS2: MS2 19] | 17.3 nM | 18.1 nM |
